The text below walks through data of publication doi:10.1101/2025.06.05.657996.

The target of assay [1] is MHV68 gL-gH fusion protein (gL-Linker-gH-Linker-His6) (murine gammaherpesvirus 68 (MHV68)). The assay is described as follows: ELISA; MHV68 gL-gH fusion protein coated at 2.5 μg/ml in PBS on Maxisorp plates; dimeric soluble murine Eph-Fc proteins 2 h at room temperature in 1% BSA in PBS; detected with ProteinG-HRP; four-parameter dose-response fit. Background: An ELISA detects its analyte on a solid surface through an enzyme-linked reagent.

Assay [2] has the same target.

In general, EC50 refers to the concentration that produces a half-maximal response. A high value points to weaker potency.

Consider “recombinant soluble murine EphA4-Fc (from UniProt Q03137 20-547) (Fc fusion)”, for which the half-maximal effective concentration (EC50) in assay [1] came to 3.6 nM. For the same molecule, the reduction of MHV68 ORF59-GFP infection of the murine endothelial cell line SVEC4-10 after pre-incubation of virions with 100 nM homodimerized mEphA4-Fc in assay [2] came out at 25%.

B1: recombinant soluble murine EphB3-Fc (Fc fusion)
chain: LEETLMDTKWVTSELAWTSHPESGWEEVSGYDEAMNPIRTYQVCNVRESSQNNWLRTGFIWRREVQRVYVELKFTVRDCNSIPNIPGSCKETFNLFYYEADSDVASASSPFWMENPYVKVDTIAPDESFSRLDAGRVNTKVRSFGPLSKAGFYLAFQDQGACMSLISVRAFYKKCASTTAGFALFPETLTGAEPTSLVIAPGTCIANAVEVSVPLKLYCNGDGEWMVPVGACTCATGHEPAAKESQCRACPPGSYKAKQGEGPCLPCPPNSRTTSPAASICTCHNNFYRADSDSADSACTTVPSPPRGVISNVNETSLILEWSEPRDLGGRDDLLYNVICKKCRGSSGAGGPATCSRCDDNVEFVPRQLGLTERRVHISHLLAHTRYTFEVQAVNGVSGKSPLPPRYAAVNITTNQAAPSEVPTLHLHSSSGSSLTLSWAPPERPNGVILDYEMKYFEKSKGIASTVTSQKNSVQLDGLQPDARYVVQVRARTVAGYGQYSHPAEFETTSERGSGAQQLQEQLPL
In assay [1], B1 came in with an EC50 of 2.3 nM. In assay [2], this molecule showed an inhibition of MHV68 ORF59-GFP infection of human fibroblasts (HFF) and endothelial cells (TIME) after pre-incubation of virions with 100 nM homodimerized mEphB3-Fc of 30%; a reduction of MHV68 ORF59-GFP infection of NIH 3T3 murine fibroblasts after pre-incubation of virions with a concentration series of soluble mEphB3-Fc, up to 100 nM homodimerized protein of 40%.
